Data: publication PMC8748450, “Aminoacyl chain translocation catalysed by a type II thioesterase domain in an unusual non-ribosomal peptide synthetase” (Nature Communications, 2022)

Key:
Conditions in all cases: both partners purified
[1] = biological target: T1, apo-LgnD (NRPS subunit, C1-T1-C2-A2-T2-TE); assay: ITC; LgnA (125 µM) titrated into LgnD or truncated LgnD (25 µM), also into LgnB (concentrations for LgnB not told); thirteen 3 µL injections, 25 °C; one set binding model; MicroCal PEAQ-ITC
T1 construct: LgnD, NRPS subunit with domains C1-T1-C2-A2-T2-TE, encoded by lgnD of the legonmycin (lgn) biosynthetic gene cluster, amplified from cosmid 7G1; about 207 kDa; apo form (no phosphopantetheine); Cloned into NdeI/XhoI of pEHISTEVa; MA37; also called full-length LgnD; source: E. coli BL21-CodonPlus (DE3)-RP, purified (Ni-NTA; gel filtration on Superdex 75 for ITC)

[2] = biological target: T2, apo-LgnB-A1-T0 didomain (NRPS subunit LgnB) (RED-tris-NTA label (in the MST experiment only)); assay: MST; LgnB labelled with RED-tris-NTA, 25 nM, as target; LgnA as ligand, 10 to 0.000305 µM; HBS-ET (10 mM HEPES, 150 mM NaCl, 3 mM EDTA, 0.005% Tween-20, pH 8.0); 25 °C; Monolith NT.115
T2 construct: LgnB, NRPS subunit with domains A1-T0, encoded by lgnB of the legonmycin (lgn) biosynthetic gene cluster, amplified from cosmid 7G1; about 65 kDa; apo form (no phosphopantetheine); Cloned into EcoRI/HindIII of pET-28a(+); MA37; source: E. coli BL21-CodonPlus (DE3)-RP, purified (Ni-NTA; gel filtration on Superdex 75 for ITC); not shown: His6, N-terminal, kept

[3] = biological target: T3, apo-LgnD-C1-T1 didomain (truncated LgnD); assay: ITC; LgnA (125 µM) titrated into LgnD or truncated LgnD (25 µM), also into LgnB (concentrations for LgnB not told); thirteen 3 µL injections, 25 °C; one set binding model; MicroCal PEAQ-ITC
T3 chain: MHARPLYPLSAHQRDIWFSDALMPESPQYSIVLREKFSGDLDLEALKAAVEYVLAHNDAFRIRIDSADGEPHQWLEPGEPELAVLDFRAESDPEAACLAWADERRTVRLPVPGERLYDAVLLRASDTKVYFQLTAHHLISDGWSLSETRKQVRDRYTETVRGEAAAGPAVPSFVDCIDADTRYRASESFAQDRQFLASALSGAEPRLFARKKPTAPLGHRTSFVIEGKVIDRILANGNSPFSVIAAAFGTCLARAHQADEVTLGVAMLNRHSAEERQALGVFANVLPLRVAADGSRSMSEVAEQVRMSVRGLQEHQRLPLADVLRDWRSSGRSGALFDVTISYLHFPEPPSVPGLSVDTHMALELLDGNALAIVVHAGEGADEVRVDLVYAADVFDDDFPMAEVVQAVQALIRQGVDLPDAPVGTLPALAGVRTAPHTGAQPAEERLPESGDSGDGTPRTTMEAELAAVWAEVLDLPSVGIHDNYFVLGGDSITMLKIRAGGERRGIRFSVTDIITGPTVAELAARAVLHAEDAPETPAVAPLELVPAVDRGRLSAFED

[4] = biological target: T4, LgnD-T1 domain (truncated LgnD); assay: as above
T4 chain: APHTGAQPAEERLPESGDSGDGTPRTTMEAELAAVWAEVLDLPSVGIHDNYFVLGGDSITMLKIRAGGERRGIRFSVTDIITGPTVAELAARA

T2 sequence (main, as listed by the source): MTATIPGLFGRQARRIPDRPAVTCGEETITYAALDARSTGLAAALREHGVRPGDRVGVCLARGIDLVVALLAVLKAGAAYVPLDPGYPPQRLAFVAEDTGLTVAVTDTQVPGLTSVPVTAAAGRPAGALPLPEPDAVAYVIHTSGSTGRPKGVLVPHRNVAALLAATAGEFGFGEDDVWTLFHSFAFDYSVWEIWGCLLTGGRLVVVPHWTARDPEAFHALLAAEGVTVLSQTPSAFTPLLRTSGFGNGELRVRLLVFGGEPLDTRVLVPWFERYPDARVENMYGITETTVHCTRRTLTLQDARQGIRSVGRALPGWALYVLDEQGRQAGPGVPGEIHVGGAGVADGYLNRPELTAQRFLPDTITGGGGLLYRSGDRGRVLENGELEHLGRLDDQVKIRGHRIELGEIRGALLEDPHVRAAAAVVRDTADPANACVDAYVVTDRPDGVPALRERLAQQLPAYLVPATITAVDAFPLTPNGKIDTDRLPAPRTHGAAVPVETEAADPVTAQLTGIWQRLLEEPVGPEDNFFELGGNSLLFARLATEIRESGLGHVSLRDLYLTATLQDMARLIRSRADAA

B1: LgnA, type II thioesterase (TEII) orthologue (enzyme)
chain: MPVTLLCIPYAGAGASLFRRWKRHPFQHMDVAAVQLPGREELFADGPCTSMSELVDLCAGHIRELPQDAPFALFGHSFGALVAYETAQRLAAEGLRLPERLIVSGAAAPWLPRPVTDADSLSDDQFVARVRDVVGYDHPALHDAELRGLLLPSLRADLSISDRYAPGSTDPLPVPLTVLRGSDDRLVSRQDVELWAKAASQPTELIELPGDHMYFSLDPKPLLAELDAVFARSAA
With B1 the Kd [1] was 2550 ± 96 nM and the Kd [2] was 1700 ± 813 nM.

B2: LgnA, type II thioesterase (TEII) orthologue (enzyme)
chain: B1 chain
modifications: apo form (no phosphopantetheine on Ser492)
B2 showed a Kd [3] of 1010 ± 227 nM.

B3: LgnA, type II thioesterase (TEII) orthologue (enzyme)
chain: B1 chain
modifications: apo form (no phosphopantetheine on Ser492 of LgnD); limits from primers 28a-LgnD_T1-F/R
B3 showed a Kd [4] of 7210 ± 1610 nM.
